How the values were obtained:
His6-Sec18 = target: T1, His6-Sec18 (yeast (Saccharomyces Genome Database …, UniProt P18759 1-758)); assay: liposome floatation (density gradient) with immunoblot; protein-free VML liposomes, 1 mM Mg:ATPyS, where indicated 1 µM Sec17, 250 nM Sec18, 2 µM Qc; Rb150, 27°C 1 h; floated through Histodenz; bound proteins by Western blot; settings: both partners purified
T1 construct: Sec18, yeast, YBR080C; construct from Haas and Wickner, 1996; also called Sec18/NSF; source: E. coli XL1 Blue/pQE9-His6-Sec18, purified (Ni-NTA, Superdex 200)
T1 sequence (looked up): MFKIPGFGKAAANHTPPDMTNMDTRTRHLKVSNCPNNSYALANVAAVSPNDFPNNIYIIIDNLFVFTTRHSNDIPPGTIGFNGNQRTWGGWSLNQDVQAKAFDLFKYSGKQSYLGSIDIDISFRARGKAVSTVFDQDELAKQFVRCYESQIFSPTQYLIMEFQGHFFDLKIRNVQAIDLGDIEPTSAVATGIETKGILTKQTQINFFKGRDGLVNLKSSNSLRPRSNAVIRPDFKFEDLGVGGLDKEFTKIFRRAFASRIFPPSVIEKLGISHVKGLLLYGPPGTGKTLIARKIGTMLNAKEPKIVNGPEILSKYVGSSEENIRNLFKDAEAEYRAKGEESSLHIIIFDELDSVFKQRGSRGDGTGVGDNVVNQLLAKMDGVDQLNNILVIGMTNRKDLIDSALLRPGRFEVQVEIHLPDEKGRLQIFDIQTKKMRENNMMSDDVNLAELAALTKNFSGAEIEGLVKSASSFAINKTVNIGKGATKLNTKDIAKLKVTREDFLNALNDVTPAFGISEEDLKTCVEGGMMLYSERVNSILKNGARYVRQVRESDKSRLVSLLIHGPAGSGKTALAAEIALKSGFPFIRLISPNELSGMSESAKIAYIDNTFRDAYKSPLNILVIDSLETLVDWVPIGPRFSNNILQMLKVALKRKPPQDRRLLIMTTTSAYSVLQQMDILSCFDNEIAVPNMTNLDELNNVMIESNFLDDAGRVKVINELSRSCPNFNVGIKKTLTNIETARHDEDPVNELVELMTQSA

[1] = target: T2, complex of RQaQb on proteoliposomes (yeast (Saccharomyces Genome Database …, UniProt Q12255 1-253; Q12241 1-283; Q04338 1-217); assay: liposome floatation (density gradient) with immunoblot; VML proteoliposomes with no SNAREs, single or several anchored SNAREs (1:2000 to lipid), 0.5 mM lipid, 1 µM added Sec17, Rb150, 0.04% defatted BSA, 1 mM MgCl2, 27°C 1 h; floated through Histodenz; bound Sec17 by Western blot; settings: both partners purified
T2 construct: Nyv1 (R SNARE), yeast, YLR093C; as m5; Vam3 (Qa SNARE), yeast, YOR106W; as m6; Vti1 (Qb SNARE), yeast, YMR197C; as m7; also called R, Qa, and Qb; source: purified SNAREs (Mima et al., 2008) reconstituted together into VML proteoliposomes; copies: + +
T2 sequence (Q12255 whole entry, chain 1 of 3): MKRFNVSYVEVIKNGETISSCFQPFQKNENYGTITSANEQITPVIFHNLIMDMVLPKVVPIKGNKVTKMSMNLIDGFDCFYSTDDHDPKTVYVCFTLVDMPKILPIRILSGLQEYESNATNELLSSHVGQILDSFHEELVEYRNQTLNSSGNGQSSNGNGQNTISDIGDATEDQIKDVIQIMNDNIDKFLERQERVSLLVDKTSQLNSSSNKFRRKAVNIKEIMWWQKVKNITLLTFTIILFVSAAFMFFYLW
T2 sequence (Q12241 whole entry, chain 2 of 3): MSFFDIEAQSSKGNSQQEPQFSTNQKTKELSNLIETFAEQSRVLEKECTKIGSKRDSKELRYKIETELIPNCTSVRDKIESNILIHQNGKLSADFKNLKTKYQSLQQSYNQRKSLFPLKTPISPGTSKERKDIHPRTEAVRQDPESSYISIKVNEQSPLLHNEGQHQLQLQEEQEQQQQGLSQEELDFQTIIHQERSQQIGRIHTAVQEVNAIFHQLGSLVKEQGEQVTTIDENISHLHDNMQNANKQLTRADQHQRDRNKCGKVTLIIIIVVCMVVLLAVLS
T2 sequence (Q04338 whole entry, chain 3 of 3): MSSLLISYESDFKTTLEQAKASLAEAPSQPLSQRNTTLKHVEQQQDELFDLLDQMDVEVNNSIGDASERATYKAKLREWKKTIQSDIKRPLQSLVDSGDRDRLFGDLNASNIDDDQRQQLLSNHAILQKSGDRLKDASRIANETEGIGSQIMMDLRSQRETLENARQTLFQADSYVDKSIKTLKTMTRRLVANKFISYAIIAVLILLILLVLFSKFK

B1: Sec17 (natural protein, UniProt P32602 1-292, looked up)
chain: MSDPVELLKRAEKKGVPSSGFMKLFSGSDSYKFEEAADLCVQAATIYRLRKELNLAGDSFLKAADYQKKAGNEDEAGNTYVEAYKCFKSGGNSVNAVDSLENAIQIFTHRGQFRRGANFKFELGEILENDLHDYAKAIDCYELAGEWYAQDQSVALSNKCFIKCADLKALDGQYIEASDIYSKLIKSSMGNRLSQWSLKDYFLKKGLCQLAATDAVAAARTLQEGQSEDPNFADSRESNFLKSLIDAVNEGDSEQLSEHCKEFDNFMRLDKWKITILNKIKESIQQQEDDLL
notes: Sec17, yeast, YBL050W; Plasmid from Schwartz and Merz, 2009; also called Sec17/SNAP; wild-type Sec17; source: E. coli Rosetta2(DE3), purified (chitin resin, DTT cleavage, dialysed into Rb150)
B1: binds (His6-Sec18); binds [1].
